{"source": "the RNAGym collection of RNA variant scans (doi:10.1073/pnas.2313332121)", "parents": {"B1": {"name": "TPR t1 (parent)", "chain": "GACCAAUCUGCCCUCAGAGCUCGAGAACAUCUUCGGAUGCAGAGGAGGCAGGCUUCGGUGGCGCGAUAGCGCCAACGUCCUCAACCUCCAAUGCAUCCCACCACAUGAUGAUGCCUGAAGAGCCUUGGUUUUUUG"}}}
{"variants_of": "B1", "assay": "polymerase ribozyme fitness, log enrichment relative to wild type (log ratio); higher = more active; in vitro selection for triplet polymerase activity", "outline": "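Each subunit of a heterodimeric triplet polymerase ribozyme was represented by a PCR-built, transcribed mutant library that underwent triplicate single-round in vitro selection with frozen incubation at −7 °C. Extended constructs were recovered by gel excision, streptavidin-bead capture and RT-PCR, and Illumina sequencing of input and output libraries kept genotypes with ≥10 input reads and ≥1 read per output. Fitness is the logarithm of genotype enrichment relative to wild-type enrichment, from inverse-variance-weighted replicate averages, with a logarithm base of 2.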"}
{"variant": "U14A G57C G58A G61A A105C U109G", "polymerase ribozyme fitness (log ratio)": -6.86}
{"variant": "A2C G71C C99A A105U A111G", "polymerase ribozyme fitness (log ratio)": -6.44}
{"variant": "G23U G48U C62A C64A C86U C99A G117U", "polymerase ribozyme fitness (log ratio)": -7.32}
{"variant": "C12G C64U U133A", "polymerase ribozyme fitness (log ratio)": -0.644}
{"variant": "G71A A111G G120U", "polymerase ribozyme fitness (log ratio)": -2.5}
{"variant": "C11U U96A", "polymerase ribozyme fitness (log ratio)": -1.94}
{"variant": "G10A G35A G77A", "polymerase ribozyme fitness (log ratio)": -5.04}
{"variant": "U7C C73A C101U", "polymerase ribozyme fitness (log ratio)": 0.14}
{"variant": "G48U C124U U125A", "polymerase ribozyme fitness (log ratio)": 0.397}
{"variant": "C70A C114G", "polymerase ribozyme fitness (log ratio)": -4.93}
{"variant": "U30C C56G G60U A84C", "polymerase ribozyme fitness (log ratio)": -3.79}
{"variant": "U21A A50G C72U A95G A105C", "polymerase ribozyme fitness (log ratio)": -2.73}
{"variant": "G10C A18U C88A C97U U106C", "polymerase ribozyme fitness (log ratio)": -5.16}
{"variant": "A41G G47A C76A C101U", "polymerase ribozyme fitness (log ratio)": -3.57}
{"variant": "U38A G69C", "polymerase ribozyme fitness (log ratio)": -2.61}
{"variant": "G42A C88A", "polymerase ribozyme fitness (log ratio)": -1.56}
{"variant": "U78G C88G", "polymerase ribozyme fitness (log ratio)": -0.734}
{"variant": "C56U C123A", "polymerase ribozyme fitness (log ratio)": 0.593}
{"variant": "C12U A37G A95G", "polymerase ribozyme fitness (log ratio)": -0.754}
{"variant": "G63U G113C", "polymerase ribozyme fitness (log ratio)": -2.98}
{"variant": "G51C C70G U109G", "polymerase ribozyme fitness (log ratio)": -7.25}
{"variant": "A41U C56U G110A", "polymerase ribozyme fitness (log ratio)": -2.95}
{"variant": "C56A C79G U87A", "polymerase ribozyme fitness (log ratio)": -1.58}
{"variant": "C8G C34G C89A U96G A100U", "polymerase ribozyme fitness (log ratio)": -7.34}
{"variant": "A50U C62G", "polymerase ribozyme fitness (log ratio)": -3.56}
{"variant": "G69U U78C C88U", "polymerase ribozyme fitness (log ratio)": 0.314}
{"variant": "G36U G51A G60U U112C C123U", "polymerase ribozyme fitness (log ratio)": -1.16}
{"variant": "C88A U109A", "polymerase ribozyme fitness (log ratio)": -5.8}
{"variant": "C12A G45A C85A", "polymerase ribozyme fitness (log ratio)": -3.04}
{"variant": "A16G C70U C82G", "polymerase ribozyme fitness (log ratio)": -2.05}
{"variant": "C56U U96C C114G", "polymerase ribozyme fitness (log ratio)": -3.1}
{"variant": "U7A C13U G36A G69U", "polymerase ribozyme fitness (log ratio)": -0.408}
{"variant": "U7G G120U", "polymerase ribozyme fitness (log ratio)": 0.729}
{"variant": "A27U C82G C102A C123A", "polymerase ribozyme fitness (log ratio)": -4.66}
{"variant": "C8A U92C", "polymerase ribozyme fitness (log ratio)": -0.565}
{"variant": "C15A C80U", "polymerase ribozyme fitness (log ratio)": -1.68}
{"variant": "C56G G61U U106A C115U", "polymerase ribozyme fitness (log ratio)": -5.22}
{"variant": "C28U G47A G60C", "polymerase ribozyme fitness (log ratio)": -3.22}
{"variant": "G63A U131A", "polymerase ribozyme fitness (log ratio)": -1.11}
{"variant": "A66C C85A", "polymerase ribozyme fitness (log ratio)": -3.06}
{"variant": "U14G C15G", "polymerase ribozyme fitness (log ratio)": -5.02}
{"variant": "A41U C73G", "polymerase ribozyme fitness (log ratio)": -3.06}
{"variant": "G42C U55A G71C G113U G120U C123U U125A", "polymerase ribozyme fitness (log ratio)": -5.08}
{"variant": "A50U U81A C85G", "polymerase ribozyme fitness (log ratio)": -0.884}
{"variant": "G44A C72U A84U", "polymerase ribozyme fitness (log ratio)": -1.47}
{"variant": "C8G G69A", "polymerase ribozyme fitness (log ratio)": -1.5}
{"variant": "C34U G61U", "polymerase ribozyme fitness (log ratio)": -3.87}
{"variant": "G48A G61U", "polymerase ribozyme fitness (log ratio)": -0.0763}
{"variant": "G44A C49U G117C U133G", "polymerase ribozyme fitness (log ratio)": -5.23}
{"variant": "C11A C62U G117A G122A", "polymerase ribozyme fitness (log ratio)": -0.74}
{"variant": "A43U G69C C115A C124U", "polymerase ribozyme fitness (log ratio)": -3.09}
{"variant": "C49A G71A C101A C114A", "polymerase ribozyme fitness (log ratio)": -4.05}
{"variant": "C56A A121C", "polymerase ribozyme fitness (log ratio)": 0.751}
{"variant": "C88U U116C", "polymerase ribozyme fitness (log ratio)": 0.189}
{"variant": "G47C U78A A105C G120C U130C", "polymerase ribozyme fitness (log ratio)": -3.11}
{"variant": "C3U G52A A121U", "polymerase ribozyme fitness (log ratio)": 1.95}
{"variant": "A2C C13U C86U G110U G120C", "polymerase ribozyme fitness (log ratio)": -4.02}
{"variant": "C40G G45A", "polymerase ribozyme fitness (log ratio)": -2.11}
{"variant": "A111U A121C U126A U130G", "polymerase ribozyme fitness (log ratio)": -2.89}
{"variant": "C12A G36U G48A G63C C123A", "polymerase ribozyme fitness (log ratio)": -0.6}
{"variant": "C8U C53A", "polymerase ribozyme fitness (log ratio)": 0.141}
{"variant": "A50C C89A", "polymerase ribozyme fitness (log ratio)": -2.41}
{"variant": "A29G U116A", "polymerase ribozyme fitness (log ratio)": -3.67}
{"variant": "C8G G47C G69U U92A G93U C123A U126A", "polymerase ribozyme fitness (log ratio)": -3.8}
{"variant": "G69C C99U G120U", "polymerase ribozyme fitness (log ratio)": -5.41}
{"variant": "C20G C64A C70G G113A U125G U133G", "polymerase ribozyme fitness (log ratio)": -5.92}
{"variant": "C8U C20A", "polymerase ribozyme fitness (log ratio)": -1.98}
{"variant": "G60A G69U A121C G122U", "polymerase ribozyme fitness (log ratio)": -0.0689}
{"variant": "A26U G47C G77A U78A", "polymerase ribozyme fitness (log ratio)": -5.33}
{"variant": "C80U U96C", "polymerase ribozyme fitness (log ratio)": -0.313}
{"variant": "G117C U130A", "polymerase ribozyme fitness (log ratio)": -5.1}
{"variant": "C8A G71U", "polymerase ribozyme fitness (log ratio)": -0.261}
{"variant": "A90U A95U G113C G122U", "polymerase ribozyme fitness (log ratio)": -1.98}
{"variant": "G60A C70U", "polymerase ribozyme fitness (log ratio)": -1.22}
{"variant": "A43U G48U A50U C62U C88G C101G U112A", "polymerase ribozyme fitness (log ratio)": -5.19}
{"variant": "C22U A41U C73G C99U", "polymerase ribozyme fitness (log ratio)": -6.26}
{"variant": "C12U A84C", "polymerase ribozyme fitness (log ratio)": 0.463}
{"variant": "C11G G110C", "polymerase ribozyme fitness (log ratio)": -3.47}
{"variant": "A37U G122A U130C U131A G135U", "polymerase ribozyme fitness (log ratio)": -1.18}
{"variant": "G48U C76U C89G C124U G128U U132C", "polymerase ribozyme fitness (log ratio)": -2.96}
{"variant": "G10U C22A A119U", "polymerase ribozyme fitness (log ratio)": -5.31}
{"variant": "G69U C86A C104U", "polymerase ribozyme fitness (log ratio)": 0.251}
{"variant": "C31U G47U C73A U112C G120C", "polymerase ribozyme fitness (log ratio)": -5.43}
